The series “SEC” deals with the molecule itself. Nature of the series: SEC.
For series [1], the target named is T1, biotinylated human erythrocyte β-spectrin repeats 12–17 (human, UniProt P11277 1486-2083, biotin (biotinylated; site not stated)).
T1 sequence (looked up): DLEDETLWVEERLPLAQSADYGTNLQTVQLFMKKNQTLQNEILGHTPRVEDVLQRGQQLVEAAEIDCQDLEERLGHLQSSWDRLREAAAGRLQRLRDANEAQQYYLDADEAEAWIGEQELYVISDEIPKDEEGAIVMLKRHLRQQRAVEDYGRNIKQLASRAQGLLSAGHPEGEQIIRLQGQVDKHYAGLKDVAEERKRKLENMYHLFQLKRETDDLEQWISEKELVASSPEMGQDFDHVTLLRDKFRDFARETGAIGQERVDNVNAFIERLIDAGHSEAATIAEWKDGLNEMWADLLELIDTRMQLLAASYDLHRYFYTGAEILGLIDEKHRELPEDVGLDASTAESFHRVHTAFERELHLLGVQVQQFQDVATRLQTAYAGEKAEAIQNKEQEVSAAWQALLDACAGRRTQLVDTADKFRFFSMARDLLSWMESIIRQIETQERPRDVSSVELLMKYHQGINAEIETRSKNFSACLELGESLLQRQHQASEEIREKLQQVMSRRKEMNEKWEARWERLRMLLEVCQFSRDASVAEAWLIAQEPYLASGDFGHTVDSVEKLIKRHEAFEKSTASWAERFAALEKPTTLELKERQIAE
Nature of the series: SPR. (Surface plasmon resonance follows binding to a sensor surface in real time, without labels.)

B1: Ankyrin-R Death domain (DD), residues 1394–1497 (domain or fragment, human, UniProt P16157 1394-1497, looked up)
chain: PGSLSGTEQAEMKMAVISEHLGLSWAELARELQFSVEDINRIRVENPNSLLEQSVALLNLWVIREGQNANMENLYTALQSIDRGEIVNMLEGSGRQSRNLKPDR
On to B1, for which the “stoichiometry N” value in “SEC” turned out to be 2.

B2: ZU5A-ZU5B fragment of human erythrocyte ankyrin (ankyrin-R), residues 911–1233 (domain or fragment, UniProt P16157 911-1233, looked up)
chain: TGFLVSFMVDARGGSMRGSRHNGLRVVIPPRTCAAPTRITCRLVKPQKLSTPPPLAEEEGLASRIIALGPTGAQFLSPVIVEIPHFASHGRGDRELVVLRSENGSVWKEHRSRYGESYLDQILNGMDEELGSLEELEKKRVCRIITTDFPLYFVIMSRLCQDYDTIGPEGGSLKSKLVPLVQATFPENAVTKRVKLALQAQPVPDELVTKLLGNQATFSPIVTVEPRRRKFHRPIGLRIPLPPSWTDNPRDSGEGDTTSLRLLCSVIGGTDQAQWEDITGTTKLVYANECANFTTNVSARFWLSDCPRTAEAVNFATLLYKEL
In the case of B2, in series [1], the Kd worked out at 8.3 nM.

The stoichiometry N is a count of units in the complex or per binding partner. As usually defined, the Kd is the concentration at which binding is half-saturated. A high value points to lower affinity.
